US20070265201A1 (published 2007)
Ends that are not written are not given here.

Columns and labels:
Assay in all cases: GST pull-down, 35S-labeled in vitro translated probe, autoradiography
[1] = molecular target: T1, Cytomegalovirus (CMV) Immediate Early 2 protein (IE2), in vitro translated radiolabeled probe (human Cytomegalovirus (hCMV), UniProt P19893 1-580, labeled with 35S methionine)
T1 sequence: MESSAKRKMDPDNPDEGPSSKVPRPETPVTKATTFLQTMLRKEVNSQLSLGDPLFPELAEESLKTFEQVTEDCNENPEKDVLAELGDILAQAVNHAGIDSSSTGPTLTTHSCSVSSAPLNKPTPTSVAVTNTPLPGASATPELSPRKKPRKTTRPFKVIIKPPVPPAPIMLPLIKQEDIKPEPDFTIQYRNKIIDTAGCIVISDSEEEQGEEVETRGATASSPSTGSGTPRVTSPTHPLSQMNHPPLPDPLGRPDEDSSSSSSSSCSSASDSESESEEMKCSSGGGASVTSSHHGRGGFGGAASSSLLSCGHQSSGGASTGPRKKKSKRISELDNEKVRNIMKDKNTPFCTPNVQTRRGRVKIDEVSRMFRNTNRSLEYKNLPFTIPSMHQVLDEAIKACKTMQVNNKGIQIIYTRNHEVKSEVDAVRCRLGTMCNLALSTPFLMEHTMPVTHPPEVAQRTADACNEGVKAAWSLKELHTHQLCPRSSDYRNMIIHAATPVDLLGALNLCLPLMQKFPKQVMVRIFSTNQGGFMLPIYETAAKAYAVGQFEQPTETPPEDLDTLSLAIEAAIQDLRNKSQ

[2] = molecular target: T2, Spi-1 ETS domain, in vitro translated radiolabeled probe (UniProt P17947 170-253)
T2 construct: domain: ETS domain; also called PU.1 ETS domain

[3] = molecular target: T3, C/EBPβ bZIP domain, in vitro translated radiolabeled probe (UniProt P17676 269-345, labeled with 35S methionine)
T3 construct: range 269-345; Residues 269-345 are stated for the bZIP expression vector in pcDNA3.1; also called bZIP region of NFIL6

Measured: binding result

T3 sequence (P17676 269-345 limits assumed): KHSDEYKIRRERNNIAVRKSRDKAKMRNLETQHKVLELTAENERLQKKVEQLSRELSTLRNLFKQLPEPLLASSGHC

B1: GST fusion of IE2 291-364 fragment with an internal deletion of residues 315-328 (delA) (other)
chain: SSHHGRGGFGGAASSSLLSCGHQSRISELDNEKVRNIMKDKNTPFCTPNVQTRRGRVKID
modifications: cysteine pairing not given here; also: GST fusion, linker and position not given here
notes: also called IE2 291-364Δ315-328; not shown: glutathione-S-transferase (GST) fusion partner
no binding: all assays above
